According to US20090325883A1 (LES LABORATOIRES SERVIER, published 2009):

B1: Kiaa 1578 peptide (peptide)
peptide: VMTQEVGQLLQDMGDDVYQQYRSL
notes: also called peptide b)
B2: Loc 51569 peptide (peptide)
peptide: DMWDTRIAKLRVSADSFVRQQEA
notes: also called peptide d)
B3: Mina53 peptide (peptide)
peptide: VATRRLSGFLRTLADRLEGTKELL
notes: also called peptide e)
B4: Cerd4 peptide (peptide)
peptide: MATVIHNPLKALGDQFYKEAIEHC
notes: also called peptide a)
B5: Genematch peptide (peptide)
peptide: RLKHSCLLALKRAADLLGQRSSST
notes: also called peptide c)

These binders were tested against T1, Bcl-XL (UniProt Q07817 1-209) (assay: fluorescence polarisation competition; 15 nM Bak BH3 carboxyfluorescein, 100 nM Bcl-XL).
T1 construct: also called anti-apoptotic member Bcl-XL
T1 sequence (Q07817 1-209): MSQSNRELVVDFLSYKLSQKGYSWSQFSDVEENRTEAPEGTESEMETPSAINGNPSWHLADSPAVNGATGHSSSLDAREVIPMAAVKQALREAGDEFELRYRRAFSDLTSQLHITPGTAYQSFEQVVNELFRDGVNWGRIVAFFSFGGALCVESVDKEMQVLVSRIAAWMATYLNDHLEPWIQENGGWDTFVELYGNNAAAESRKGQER
With B1 the Ki was 32 µM.
For B2, the Ki was 8 µM.
With B3 the Ki was 20 µM.
For B4, the Ki was 9 µM.
With B5 the Ki was 1 µM.
